Usually Kd stands for the equilibrium constant for the complex coming apart. High values mean a looser complex, low ones a tighter complex. A word on the IC50: it is the midpoint of a concentration-inhibition curve.

In patent US20120195910A1 (published 2012) one finds Kd and IC50 data, which are given here for six molecules.

In assay [1] the target is Human PCSK9 (Genbank EF692496) containing a histidine (His)8 C-terminal tag (UniProt Q8NBP7 31-692). Nature of the assay: BIAcore SPR; FIG. 3A. (Surface plasmon resonance follows binding to a sensor surface in real time, without labels.)
The target in assay [2] is biotinylated human PCSK9 (UniProt Q8NBP7 31-692, biotinylated (sites not given)). Nature of the assay: competition binding ELISA (PCSK9-LDLR).

B1: YW508.20.84 (antibody, V domains shown)
VH: EVQLVESGGGLVQPGGSLRLSCAASGFTFTGYAIHWVRQAPGKGLEWVARISPANGNTNYADSVKGRFTISADTSKNTAYLQMNSLRAEDTAVYYCARWIGSRELYIMDYWGQGTLVTVSS
VL: DIQMTQSPSSLSASVGDRVTITCRASQDVSTAVAWYQQKPGKAPKLLIYSASFLYSGVPSRFSGSGSGTDFTLTISSLQPEDFATYYCQQSYPAPSTFGQGTKVEIKR
Regarding B1, in assay [1], the affinity, expressed as Kd, was 0.481 nM. Besides, in assay [2], the concentration for half-maximal inhibition (IC50) was 1.39 nM.

B2: YW508.20 (antibody, V domains shown)
VH: EVQLVESGGGLVQPGGSLRLSCAASGFTFTGYAIHWVRQAPGKGLEWVGRISPANGNTNYADSVKGRFTISADTSKNTAYLQMNSLRAEDTAVYYCARWIGSRELYIMDYWGQGTLVTVSS
VL: DIQMTQSPSSLSASVGDRVTITCRASQDVSSAVAWYQQKPGKAPKLLIYSASSLYSGVPSRFSGSRSGTDFTLTISSLQPEDFATYYCQQSYTTPPTFGQGTKVEIKR
B2 gave an IC50 in assay [2] of 15.2 nM.

B3: YW508.20.06 (antibody, V domains shown)
VH: EVQLVESGGGLVQPGGSLRLSCAASGFTFTGYAIHWVRQAPGKGLEWVARISPANGNTNYADSVKGRFTISADTSKNTAYLQMNSLRAEDTAVYYCARWIGSRELYIMDYWGQGTLVTVSS
VL: DIQMTQSPSSLSASVGDRVTITCRASQDVSTAVAWYQQKPGKAPKLLIYSASFLYSGVPSRFSGSGSGTDFTLTISSLQPEDFATYYCQQSYPSPATFGQGTKVEIKR
B3 came in with an equilibrium dissociation constant (Kd) in assay [1] of 0.628 nM. The same molecule had an IC50 in assay [2] of 1 nM.

B4: YW508.20.28 (antibody, V domains shown)
VH: EVQLVESGGGLVQPGGSLRLSCAASGFTFTRHTIHWVRQAPGKGLEWVARISPANGNTNYADSVKGRFTISADTSKNTAYLQMNSLRAEDTAVYYCARWIGSRELYIMDYWGQGTLVTVSS
VL: DIQMTQSPSSLSASVGDRVTITCRASQDVSTAVAWYQQKPGKAPKLLIYSASFLYSGVPSRFSGSGSGTDFTLTISSLQPEDFATYYCQQSYRIQPTFGQGTKVEIKR
Molecule B4 returned a Kd in assay [1] of 0.349 nM. For the same molecule, the IC50 in assay [2] was 1.05 nM.

B5: YW508.20.33 (antibody, V domains shown)
VH: EVQLVESGGGLVQPGGSLRLSCAASGFTFSSTAIHWVRQAPGKGLEWVARISPANGNTNYADSVKGRFTISADTSKNTAYLQMNSLRAEDTAVYYCARWIGSRELYIMDYWGQGTLVTVSS
VL: DIQMTQSPSSLSASVGDRVTITCRASQDVSTAVAWYQQKPGKAPKLLIYSASFLYSGVPSRFSGSGSGTDFTLTISSLQPEDFATYYCQQSYPALHTFGQGTKVEIKR
In the case of B5, the Kd in assay [1] was 0.408 nM. The concentration for half-maximal inhibition (IC50) in assay [2] amounted to 1.31 nM.

B6: YW508.20.04 (antibody, V domains shown)
VH: EVQLVESGGGLVQPGGSLRLSCAASGFTFTGYAIHWVRQAPGKGLEWVGRISPANGNTNYADSVKGRFTISADTSKNTAYLQMNSLRAEDTAVYYCARWIGSRELYIMDYWGQGTLVTVSS
VL: DIQMTQSPSSLSASVGDRVTITCRASQDVSTAVAWYQQKPGKAPKLLIYSASFLYSGVPSRFSGSGSGTDFTLTISSLQPEDFATYYCQQSYPAPATFGQGTKVEIKR
In the case of B6, the Kd in assay [1] came to 0.757 nM. The molecule further returned a half-inhibitory concentration (IC50) in assay [2] of 0.92 nM.
